Assay [1] addresses thrombin-specific peptide with the cleavage site. Kind of assay: single-particle plasmon sensing (dark-field scattering microscopy of gold nanorods); same sensor; standard deviation of the start time t0 of cleavage among particles against thrombin concentration, fitted with Poisson statistics of the waiting time for the first enzyme to bind to a particle; additional uncertainty of 20 s allowed.

The target is the same in assay [2]. Nature of the assay: single-particle plasmon sensing (dark-field scattering microscopy of gold nanorods); peptide held on gold nanorods on a coverslip in a flow cell; thrombin 1-300 nM injected at 5 uL/min in 50 mM Tris-HCl, 10 mM CaCl2, 150 mM NaCl, pH 8.4; rate constants of a three-stage kinetic model adjusted to match the plasmon-shift time traces.
Assay [3] has the same target.

Chain of thrombin-specific peptide with the cleavage site (peptide, as listed by the source): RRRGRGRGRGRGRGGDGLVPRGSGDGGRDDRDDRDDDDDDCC

Regarding active thrombin (enzyme), the results for the kon in assay [1] and in assay [2] were 100000 M⁻¹ s⁻¹ and 200000 M⁻¹ s⁻¹, respectively. Further, the peptide cleavage rate kb from the kinetic model matched to the plasmon-shift time traces in assay [3] is 0.01 s^–1.

For the origin of these results see publication PMC10616847.
